Target: monomeric synthetic human Aβ1-42 peptide (human)
Test: cell-based or functional assay

Substance: recombinant NIa (nuclear inclusion a) protease of Turnip mosaic virus (TuMV), purified from E. coli (from UniProt P89509 2117-2359) (enzyme)
- reduction of monomeric Aβ level, densitometry of Western blot (6E10), 3 hrs at 25 °C, NIa pre-incubated with the cysteine protease inhibitor NEM: 33%

— patent US20130108613A1
